Test results: patent US9005962B2, “Regionalised endoderm cells and uses thereof” (The University Court of the University of Edinburgh, priority 2007, dated 2015)

Assays:
Hex^RS ES cells [1] = experiment: ADE (H+C+) induction, serum-free adherent monolayer culture, flow cytometry, RT-PCR and immunostaining; type: cell-based; details: monolayer culture
Procedure: For ADE induction under serum-free conditions in adherent monolayer culture, ES cells were seeded onto gelatin coated 3 cm 6 well dishes (Iwaki) at a density of 1×10^4 cells/ml in N2B27 medium (StemCellSciences) supplemented with 10 ng/ml Bmp4, 20 ng/ml activin A and 10 ng/ml Fgf4. Following 2 days of culture the media was replaced with SF03 culture medium (Tada 2005) supplemented with 20 ng/ml activin A, 10 ng/ml Fgf4 and 20 ng/ml EGF. The media was replaced 2 days later and then every 3 days for the duration of the experiment. For some experiments 1×10^−5M all-trans retinoic acid, 100 ng/ml PD173074 and 3 μM CHIR99021 were added to the culture at the indicated timepoints.
(§1) FITC-conjugated rat anti-CD184 (CXCR4), FITC-conjugated rat anti-CD31 and FITC conjugated rat anti-CD45 were purchased from BD Pharmingen. EBs generated under various different differentiation conditions were dissociated by treatment with cell dissociation buffer (PBS based) (GIBCO-BRL). Cells were washed in PBS supplemented with 10% FCS (FB) and resuspended at a maximum density of 5×10^6 cells/ml. For surface staining 200 μl of cells were plated in a V shape 96 well polystyrene plate (Sterilin) in PBS supplemented with 1% serum of the species in which the antibody was manufactured. The FITC-conjugated antibody or a FITC-conjugated isotype control was added at a 1:100 dilution. Cells were incubated in the dark for 20 mins, washed 3 times with FB and resuspended in FB supplemented with Topro3-iodide (Invitrogen) to exclude dead cell from the analysis. Cells were analysed using a FACS Calibur (BD Biosciences) or sorted using a MoFlo MLS flow cytometer (DakoCytomation).
Total RNA was prepared from a minimum of 1×10^4 cells from sorted cell fractions, EBs, monolayer differentiated cells or ES cells using Trizol reagent (Invitrogen). 1 μg of RNA was used as a template for cDNA synthesis using Superscript III (Invitrogen). Real-time RT-PCR was performed using a LightCycler 480 (Roche) and LightCycler 480 SYBR Green 1 Master (Roche). The following cycling conditions were used: denaturation: 95° C. 5 sec, amplification: 95° C. 5 sec, 58° C. 10 sec, 72° C. 20 sec (45 cycles), 81° C. 1 sec, melt: 95° C. 1 sec, 65° C. 10 sec, 95° C. −ramp 5 C per sec continuous, cool: […] 10 sec. Standard curves were generated from plasmid. Samples were normalized to β-actin or TATA-box binding protein (TBP) expression levels.
Sorted cells were seeded onto gelatin coated 24 well dishes (Iwaki). Adherence of cells to the substrate was enhanced by centrifugation at 1200 rpm for 3 mins. Sorted cells, monolayer differentiated cells and ES cells were washed in PBS, fixed in 4% paraformaldehyde for 10 mins and permeabilised by washing in PBS supplemented with 0.1% Triton X (PBST). Cells were treated with a blocking reagent (3% serum of same species as secondary antibody, 1% BSA in PBST) for 15 min before incubation with the primary antibody at 4° C. overnight. The cells were washed with PBST and incubated with the appropriate fluorescence-tagged secondary antibody for 2 hr at room temperature. The cells were washed with PBST and DAPI added during the final wash. The following primary antibodies were used, all are anti-mouse: anti-Oct3/4, anti-HNF-3β (Foxa2), anti-HNF-4α (Santa Cruz), anti-Cer11 (R&D), anti-E-cadherin (Takara Bio Inc) anti-alpha fetoprotein (NeoMarkers), anti-albumin (Bethyl laboratories inc). Anti-Pdx1 was a gift from P. Serup. […]
(§2) FITC-conjugated rat anti-CD184 (Cxcr4), FITC-conjugated rat anti-CD31 and FITC conjugated rat anti-CD45 were purchased from BD Pharmingen. Cells were stained with Topro3-iodide (Invitrogen) to exclude dead cells from the analysis. Cells were analysed using a FACS Calibur (BD Biosciences) or sorted using a MoFlo MLS flow cytometer (DakoCytomation).

Hex^RS ES cells [2] = experiment: ADE (H+C+) induction, two-step suspension (embryoid body) differentiation with serum day 0-2, flow cytometry for RS and Cxcr4; type: cell-based, mouse
Procedure: ADE was induced under serum-containing conditions using a 2-step protocol. ES cells were seeded onto non-coated 10 cm petri dishes (sterilin) at a density of 5×10^3 cells/ml in Glasgow minimum essential medium (G-MEM; GIBCO-BRL) supplemented with 10% fetal calf serum (FCS), 0.1 mM nonessential amino acids (GIBCO-BRL), 1 mM sodium pyruvate, 2 mM glutamine and 0.1 mM 2-mercaptoethanol (2ME). Following 2 days of culture the resulting embryoid bodies (EBs) were harvested by centrifugation at 500 rpm for 1 min and replated on 10 cm non-coated petri dishes at the same density in N2B27 culture medium (StemCellSciences) supplemented with 20 ng/ml activin A (R&D). The media was replaced 2 days later and then every 3 days for the duration of the experiment. For some experiments 20 ng/ml EGF, 10 ng/ml Bmp4, 20 ng/ml activin A (R&D), 1×10^−5M all-trans retinoic acid (Sigma) and 3 μM CHIR99021 (a gift from StemCellSciences) were added to the culture at the indicated timepoints.
as §1
Mouse ES cells were cultured according to Li et al., (1995). ADE was induced under serum-containing conditions using a 2-step protocol. ES cells were seeded onto non-coated 10 cm petri dishes (Sterilin) at a density of 5×10^3 cells/ml in GMEM supplemented as described in Li et al., (1995) except in the absence of LIF. EBs were harvested after two days by centrifugation and replated in N2B27 medium (StemCellSciences) supplemented with 20 ng/ml activin A (R&D) and 20 ng/ml EGF (R&D). This media was replaced again two days later. 10 ng/ml BMP4, 20 ng/ml activin A (R&D) and 1×10^−5M all-trans retinoic acid (Sigma) were added where indicated.
as §2

Hex^RS ES cells [3] = experiment: ADE (H+C+) induction, serum-free suspension (aggregation) culture, flow cytometry; type: cell-based; details: added during the first two days; serum-free, aggregation and monolayer (Table 7)
Procedure: For ADE induction under serum-free conditions in suspension culture, ES cells were seeded onto non-coated 10 cm Petri dishes at 5×10^3 cells/ml in N2B27 culture medium supplemented with 10 ng/ml Bmp4 and 20 ng/ml activin A. Following 2 days of culture the resulting EBs were harvested as above and replated on non-coated Petri dishes at the same density in SF03 culture medium (ref Tada 2005) supplemented with 20 ng/ml activin A and 20 ng/ml EGF. The media was replaced 2 days later and then every 3 days for the duration of the experiment. For some experiments 10 ng/ml Fgf4 (R&D), 10 ng/ml Bmp4, 20 ng/ml Activin A, 1×10^−5M all-trans retinoic acid, 100 ng/ml PD173074 (Sigma), 20 ng/ml EGF and 3 μM CHIR99021 were added to the culture at the indicated timepoints.
as §1, with “(DakoCytomation). […]” for “(DakoCytomation).”
FITC-conjugated rat anti-CD184 (Cxcr4), FITC-conjugated rat anti-CD31 and FITC conjugated rat anti-CD45 were purchased from BD Pharmingen. […] Cells were analysed using a FACS Calibur (BD Biosciences) or sorted using a MoFlo MLS flow cytometer (DakoCytomation).

B1: Bmp4: bone morphogenetic protein, 10 ng/ml (protein, UniProt P12644 293-408, looked up)
Bone morphogenetic protein 4: SPKHHSQRARKKNKNCRRHSLYVDFSDVGWNDWIVAPPGYQAFYCHGDCPFPLADHLNSTNHAIVQTLVNSVNSSIPKACCVPTELSAISMLYLDEYDKVVLKNYQEMVVEGCGCR
Hex^RS ES cells [1]
  H+C+ percentage: increased
Hex^RS ES cells [2]; added either at day 0 or day 3 (Table 2)
  induction of the RS positive population: completely blocked
Hex^RS ES cells [2]; added either at day 0 or day 3, data not shown
  CXCR4 induction: without effecting
Hex^RS ES cells [3]
  total number of surviving cells at the end of the 7 day differentiation: significantly increased
